Key:
[1] = substrate: CC(C)C[C@H](NC(=O)[C@H](C)NC(=O)[C@H](C)NC(=O)CCC(=O)O)C(=O)Nc1ccc([N+](=O)[O-])cc1; experiment: Kinetic parameters of hydrolysis of Suc-Ala-Ala-Leu-NH-Np (Lineweaver-Burk); assay type: biochemical, bovine; settings: other: (S) range 0.04-4.0 mM, 10 mM CaCl2, pH 7.5, 25° C., enzyme 2.2×10^-9 M
Procedure: (§1) Neutral endopeptidase and neutral proteinase activities were assayed by the two-stage assay using the synthetic substrate Suc-Ala-Ala-Leu-NH-Np supplemented with Streptomyces griseus aminopeptidase, usually 6-7 μg/ml. Assays were performed in 0.1M NaCl-0.05M Tris.HCl, pH 7.5 at 25° C., unless otherwise stated, with or without 0.01M CaCl2. Assay volume was 1 ml or 2.5 ml when using a Varian Techtron spectrophotometer or 0.2 ml at 23° C. when performed with microplates (Munc Immuno Plate II F) using a Kinetic Microplate Reader (Molecular Devices Corp.). Activity was measured by following the increase in absorbance at 405 nm, due to the release of 4-nitroaniline, E405 =10,600M^-1 cm^-1 [14 ]. Molar concentration of thermolysin was estimated using A280 1% =17.65 [15] and molecular mass of 34,600 Da; molar concentration of bovine kidney neutral endopeptidase by protein determination and molecular mass of 90 kDa, deduced from SDS PAGE. Both endopeptidase 24.11 from bovine kidney and thermolysin cleave the Ala-Leu bond of the compound at a very fast rate (Table 3). […]
(§2) Reactions were carried out in the presence of 10 mM CaCl2 at pH 7.5, 25° C. […] Values of kcat and Km were determined by Lineweaver-Burk plots.

[2] = substrate: CC(C)C[C@H](NC(=O)[C@H](C)NC(=O)[C@H](C)NC(=O)CCC(=O)O)C(=O)Nc1ccc([N+](=O)[O-])cc1; experiment: as above; assay type: biochemical; settings: other: (S) range 0.4-4.0 mM, 10 mM CaCl2, pH 7.5, 25° C., enzyme 3.0×10^-10 M
Procedure: as §1, with “3). The Leu residue of the substrate interacts with the major hydrophobic specificity sites of the enzymes (S'1), whereas the two Ala residues interact with additional subsites (S1, S2), thereby contributing to catalysis and/or binding. Even the 4-nitroaniline leaving group probably interacts with the enzyme at subsite S'2. Previously reported assays of endopeptidase 24.11 usually utilized a hydrophobic Phe residue, but Leu seems preferable in reaching higher kcat values. The rapid hydrolysis of the Leu residue is also preferable for the present two-stage assay utilizing Steptomyces aminopeptidase, since this enzyme very rapidly hydrolyzes the product of the endopeptidase attack, Leu-NH-Np.” for “3).”
as §2

Protein	Km [1] [µM]	kcat [1] [s⁻¹]	Km [2] [µM]	kcat [2] [s⁻¹]	kcat/Km [2] [M^-1 s^-1 × 10^-6]
bovine kidney neutral endopeptidase 24.11 (Bos taurus) (protein, Endopeptidase 24.11 from bovine kidney was purified by Triton X-100 extraction; from tissue; host or cells: bovine kidney) MGRSESQMDITDINTPKPKKKQRWTPLEISLSVLVLLLTIIAVTMIALYATYDDGICKSSECIKSAARLIQNMDATVEPCTDFFKYACGGWLKRNVIPETSSRYSNFDILRDELEVVLKDVLQEPKTEDIIAVQKAKMLYRSCINETAIESRGGEPLLRLLPDIYDWPVALENWEQKYGSSWTAEKSIAQLNSKYGKKVIINFFVGTDDKNSTNHIIHIDQPQLGLPSRDYYECTAAYKEACTAYVDFMISVAKLIRQERGLPIDENQLSLEMNKVMDLEKEIANATTKSEDRNDPMLLYNKMTLAEVQNKFSLEFSGKPFSWSNFTNEIMSTVNINIPHEEEVIVYAPEYLTNLKLILAKYSARDLQNLMSWRFIMDLVSSLSRNYKESRNAFRKALYGTTSETATWRRCANYVNGNMENAVGRLYVEAAFPGDSKHVVEDLIAQIRAVFIQTLDDLTWMDAETKKKAEEKALAIKERIGYPDDIISNDDKLNKEYLELSYQEEEYFENIIQNLKFGQNRQLKKLREKVDKDEWISGAAVVNAFYSSGRNQIVFPAGILQPPFFSAQQPKSLNYGGIGMVIGHEITHGFDDNGRNFNKDGDLVDWWTQQSANNFKDLSQCMVYQYGNFSWDLANGQHLNGINTLGENIADNGGIGQAYRAYQNYVKKHGEEKLLPGLDLNHRQLFFLNFAQVWCGTYRTEYALNSIKTDVHSPGNFRIIGTLQNSPQFSEAFHCRKNSYMNPEKKCRVW	150	120	–	–	–
Thermolysin (Bacillus thermoproteolyticus) (protein) ITGTSTVGVGRGVLGDQKNINTTYSTYYYLQDNTRGNGIFTYDAKYRTTLPGSLWADADNQFFASYDAPAVDAHYYAGVTYDYYKNVHNRLSYDGNNAAIRSSVHYSQGYNNAFWNGSQMVYGDGDGQTFIPLSGGIDVVAHELTHAVTDYTAGLIYQNESGAINEAISDIFGTLVEFYANKNPDWEIGEDVYTPGISGDSLRSMSDPAKYGDPDHYSKRYTGTQDNGGVHINSGIINKAAYLISQGGTHYGVSVVGIGRDKLGKIFYRALTQYLTPTSNFSQLRAAAVQSATDLYGSTSQEVASVKQAFDAVGVK	–	–	4200	1200	0.29
